Target: T1, restricted (IL4 independent) hIL13 receptor (human, UniProt Q14627 27-380)
T1 construct: whole, on cells; also called restricted receptor; restrictive receptor
T1 sequence (looked up): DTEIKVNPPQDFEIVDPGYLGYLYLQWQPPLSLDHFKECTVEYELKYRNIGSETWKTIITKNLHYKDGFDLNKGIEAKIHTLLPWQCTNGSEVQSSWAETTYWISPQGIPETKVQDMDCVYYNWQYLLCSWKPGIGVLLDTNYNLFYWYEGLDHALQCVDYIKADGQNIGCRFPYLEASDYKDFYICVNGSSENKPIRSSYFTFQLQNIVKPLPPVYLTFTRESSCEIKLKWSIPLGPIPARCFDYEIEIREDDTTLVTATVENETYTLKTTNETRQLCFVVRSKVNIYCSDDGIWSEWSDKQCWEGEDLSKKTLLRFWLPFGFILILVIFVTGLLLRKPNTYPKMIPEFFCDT
Test: autoradiography competition on GBM tissue sections against ^125I-hIL13.E13Y
Experimental: Serial tissue sections were cut (10 mm) on a cryostat, thaw-mounchrome alumme-alum coated slides, and stored at 4° C. until analyzed. […] To dissociate non-specifically bound radioligand, sections were rinsed in four consecutive changes (5 minutes each) of ice-cold 0.1 M PBS. […] After drying, labeled sections were apposed to Kodak autoradiography film at −65° C. for 8 hr to 11 days.

B1: recombinant hIL4 (human interleukin 4) (ligand, UniProt P05112 25-153, looked up)
chain: HKCDITLQEIIKTLNSLTEQKTLCTELTVTDIFAASKNTTEKETFCRAATVLRQFYSHHEKDTRCLGATAQQFHRHKQLIRFLKRLDRNLWGLAGLNSCPVKEANQSTLENFLERLKTIMREKYSKCSS
- binding result: no binding (tested: 100- to 500-fold molar excess)

Source: patent publication US20020159972A1 (PENN STATE RESEARCH FOUNDATION, published 2002)
